This passage reports protein production results from a protein production outcome set (Wang et al. 2014).

This data set in a line: label from the status in PepcDB records.
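Note: failed if final PepcDB status was selected cloned or expressed and not failed if soluble or beyond.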

Turning to “MPTPAYIKIVGQTQGNITAGAFTADSVGNVFQQGHEDQILVQEIKHEVTTPTDPQSGQPSGQRVHKPFIFTSSLNKATPLMYQALATGEMLPTVEVSWYRTSSEGKQEHFFTTTLEDATIVSINTVLPHALDKDNENYTQLVEVSLAYRKITWAHDVANTEGSDDWRAPAA”, the protein production result was “failed”.
To “MPTPAYMSINGETQGHITKDTYSADSVGNTWQEAHVDEFLVQELDHVLTVPRDPQSGQPTGQRVHRPLVVTKVQDRSSPLLFNALVSGEKLPECLIRFYRTSVQGKQEHYYSIKLIDALLVDIQTRMNHCQDAATADRVTEEVLKFTYRAIEVTHENCGTAGNDDWRAPREA” belongs “failed”; to “MPTPPAASSLAAQMGESPAPLYARVKHMIALQIQNGTWPPHHRVPSESELVTQLGFSRMTINRALRELTVEGLLVRMQGVGTFVAEPKSQSALFEVHNIADEIAARGHRHTCKVMVLKEEAAGSERALALDMREGQRVFHSLIVHFENDIPVQIEDRFVNAQVAPDYLKQDFTLQTPYAYLSQVAPLTEGEHVVEAILAEADECKLLQIDAGEPCLLIRRRTWSGRQPVTAARLIHPGSRHRLEGRFTK”, “not failed”; to “MPTTKQLKDTELPLNFFEHSSLETIELFIQHLTEAMILVNANGFIRSCNQRSAELLDCPQVSLKGQDWRNFLTEHHQARYDNLLSHDVQLGTNCGQPVQHPAQETTLICASGKAKDVELSISYIPGHEPMFVMVMHDLTHHKAENQKLRKLAATDSLTQLANRRYFDEMLQQHWEECTAKLRPISVVIIDVDYFKVFNDQFGHIQGDECLRKIAKVIAGIVPTEIGLAARYGGEEFALILPNHNAKMALTIAQKIQQGINNIRFTDQGLRDYVSVSASQGIACEVNGQFRTSLAMVCAADTALYRAKADGRDRINTSL”, “failed”.
“MPTTTTDPNQKQAELSPDELQRYSRHLTLPEFGREGQEALKNASVLLVGAGGLGSPAATYLAAAGVGRIGLVDFDSVEASNLQRQILYGTSDVGRPKLDAASERLEDLNPHVDVETHEVRLTSDNALDIIDQYDVVADGTDNFPTRYLVNDACVMTGTPNVYASIFRFEGQVSVFATEDGPCYRCLYEEPPPPGLVPSCAEGGVLGILPGFIGTLQATEVIKVLTGVGEPLVGRLLMSDALNMDFRTVNVPTNPECPVCGDDPTVTELIDYEAFCGLPQSDESSPNGTADSDVSDTDDAVPETSVHDLKQRRDAGDAPFVLDVREPYEAEIASLDADQLIPVDDLEARLDELDAGPEEEIVVHCRSGARSAKATAFLREQGYDASNLEGGVLAWSEEIDDSVPQY”: the protein production result is “failed”.
“MPTVKKLTKQVVDGLPTPATGQAFHWCSVTPGFAVRVTASGAKSYIVQGRVNSKTCRYTIGPCELLGTDEARKRALARLLEMHDGMNPQVERKRRQAQGVTLREVMEDYVENKRTKHGTLRDSSQADIKRCVTQHLADWADKPVASITREACVKRFRELSATAPTTANQVFRNLRALCNWARETNVAPDGSYPILPINPVVQAFKSVTWNKEVTREEFVPLAKVGAVWNMLAERSNAQIYTTADVTAAHLVMFLILTGARIGEGSALHWKDVRLDDEVPSFTFTQTKNHNEVTIPLSTQLHALLAARYSARRPDEEYVFPSRTGTREPHMQDARGTMQRVSKIAGLHLHNHDLRRTFLAIAIECGVEMWKAEILTNHLPQTVTLKHYTQTRDLRYLQADTQRVADWITKQAQVASGQNVVALRA”: the protein production entry is “failed”.
As to “MPTVLRWTRTMCKRPTCRVRQAWLVLPITGRWPSGGVSMKHACMLDSALPKPSQHSLRRQLNAIKREQFPWMSEVTKNAPQMAIIQLGRAFQNFFAGRAKYPKFRKKGMHDRFTLTNDQFDLEASRIRIPRLGWVRMRETLRFAGKIMLATVSRVAGRWFVSITVDVPDPSHLPQAENQGTVGVDLGVLVLATLSTGETVCGPRPHRALLGRVCRLSRSVLRKVKGSANRHKAKATLANLHARIAAIRLDALHTLTSDLTRRFHTIGIENLNVKGMLRNRHLARSIADIGFFEFRRQLEYKAMMRGGQVVVANRFFASSKRCLTCGHTLNELPLSVRQWACPACGARHDRDVNAAVNLKNMAVSSTVSACGEEGAGPRRKTAVGEAGSQLLEHHHHHH”, the protein production result is given as “failed”.
As for “MPTYPPSLLQSLLQYIPERELAWDCGAGSGQLTHMLASYFDQVVGTDISQTQLSHAEYYDNISYQLQPAENTTFPDHCFDLITVAQAIHWFDFEAFYAEVRRTIKPSGILAVVGYGLIHVDDLEINAKVQHLYHQTLNGFWDAERHYVDELYQTIPFPFDEIEMPAFQIEAQWTLQQLLQYLNTWSAVQHYILEKNLDPVQQLLSKGLEHHHHHH”, the protein production result is “failed”.
Then “MPVEITVKELLEAGVHFGHERKRWNPKFARYIYAERNGIHIIDLQKTMEELERTFRFIEDLAMRGGTILFVGTKKQAQDIVRMEAERAGMPYVNQRWLGGMLTNFKTISQRVHRLEELEALFASPEIEERPKKEQVRLKHELERLQKYLSGFRLLKRLPDAIFVVDPTKEAIAVREARKLFIPVIALADTDSDPDLVDYIIPGNDDAIRSIQLILSRAVDLIIQARGGVVEPSPSYALVQEAEATETPEGESEVEA”, with “not failed”; and “MPVHSRGDKKETNHHDEMEVDYAENEGSSSEDEDTESSSVSEDGDSSEMDDEDCERRRMECLDEMSNLEKQFTDLKDQLYKERLSQVDAKLQEVIAGKAPEYLEPLATLQENMQIRTKVAGIYRELCLESVKNKYECEIQASRQHCESEKLLLYDTVQSELEEKIRRLEEDRHSIDITSELWNDELQSRKKRKDPFSPDKKKPVVVSGPYIVYMLQDLDILEDWTTIRKAMATLGPHRVKTEPPVKLEKHLHSARSEEGRLYYDGEWYIRGQTICIDKKDECPTSAVITTINHDEVWFKRPDGSKSKLYISQLQKGKYSIKHS”, with “not failed”.
On to “MPVRTSQASQGNRGKGVGLGLALASAVAFGGSGVAAKPLIEAGLDPLHVVWLRVSGAALVMLPLAVRHRALLRRRPALLIGFGLLAVAGVQACYFAAISRIPVGVALLVEYLAPALVLGWVRFVQRRPVTRAAALGVVLAVGGLACVVEVWSGLGFDALGLLLALAAACCQVGYFVLSDQGSETGEDAPDPLGVIAFGLLIGALVLTVVARPWTMDWSVLGGRADMNGDSVPAALLLGWIVLIATVVAYVTGVLSVRRLSPQVAGVVACLEAVIATVLAWVLLGEHLSAPQIIGGAVVLVGAFIAQSSAPAKPSDGPVTGGGGAERQLSARGTAA”, for which the protein production result is “failed”.
To “MPVSLYSGKVALRLLLLQLVTFALLSAVFSLNSVNAAASALGGGLAAWLPNVLFVLFALRHQSHKPADGRVAWSFAIGEALKVFITIALLVVALGVFKAAFFPLGLTYLSVLVMQIVAPIVINRYRN” belongs “failed”.
In the case of “MPWLQVRLAITPEQAETYEDALLEVGAVSVTFMDAEDQPIFEPDLGTTPLWSRTHLLALFEADTDETALLAHLALLTGGDLPEHHVEEIADQDWERSWMDNFQPMRFGRRLWIVPSWHAAPEPDAVNLLLDPGLAFGTGTHPTTALCLEWLDGQELAGRQVLDFGCGSGILAIAALLLGAERAVGTDIDPQALEASRDNASRNGIEPARFPVYLPADLPQRQADVLVANILAGPLVSLAPQLTGLVRPGGLLALSGILAEQAEEVRAAYSAHFDLDPTAEREGWIRISGRRRAD”, the protein production entry is listed as “failed”.
To “MQAFRAPSLATIDDVCGTRADGYDGAPLRSIPDFAVIVPMHNEEASVETLVAEIVTACQPVGQFEIVVVDDASSDRTVNAVLSLGDRYPMLRLVRHDRQGGQSAAIHSGVQAARAPVICMLDGDGQNPPDNLPALLAPLLSATATSRLGLVAGQRVGRRDTLGKRLSSRFANGLRARILKDGTRDTGCGLKAFRRDAYLALPYFDHHHRYFPALFNRDGWQVAHVDVTHRARLHGNSHYTNIGRALVGIHDLIGVVWLLRRRKRSSWAETFKTETSPLEHHHHHH” belongs “not failed”.
Then “MQAGPSAAVENKIITLVESILAQNGIAGGIERDTTFADAGLTSMEMVNLMLAVEAEFDMTLPQSDITPENFTSAATVAQLVSRRQHAQAALEHHHHHH”, with “not failed”; and “MQAIAIDQFSEPEETQVEQVENPDRNEAGYEVCNQSGENLSVAIAYFDTSIDSYRSEGWWNLDQSKCQFFPNLLDSVDEVYVFAESDQTLWSGDFPFCMQEDAFEYPDANRDRCPSPAYSKGFLKVEVGDAKTWTTNLTPSQLEHHHHHH”, with “failed”.
